T1: mouse CD117 (mouse, UniProt P05532)
T1 construct: antigen of the Carterra SPR kinetics; also called murine CD117
T1 sequence (receptor, looked up): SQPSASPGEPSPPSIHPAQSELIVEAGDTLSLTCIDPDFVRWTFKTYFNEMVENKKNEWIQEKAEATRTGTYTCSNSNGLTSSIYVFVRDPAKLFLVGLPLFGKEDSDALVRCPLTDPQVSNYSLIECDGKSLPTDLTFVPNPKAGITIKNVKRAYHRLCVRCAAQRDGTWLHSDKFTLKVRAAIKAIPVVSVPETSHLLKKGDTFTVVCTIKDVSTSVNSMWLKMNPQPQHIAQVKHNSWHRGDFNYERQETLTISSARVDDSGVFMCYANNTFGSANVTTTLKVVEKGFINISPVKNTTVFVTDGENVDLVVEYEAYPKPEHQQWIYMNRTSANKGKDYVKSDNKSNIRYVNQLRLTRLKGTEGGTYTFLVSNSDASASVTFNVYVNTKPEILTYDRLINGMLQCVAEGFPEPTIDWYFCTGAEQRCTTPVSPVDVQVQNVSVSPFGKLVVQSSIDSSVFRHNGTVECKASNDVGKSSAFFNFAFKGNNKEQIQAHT

T2: SIGLEC-5 (limits assumed)
T2 construct: also called OB-BP-2
T2 receptor: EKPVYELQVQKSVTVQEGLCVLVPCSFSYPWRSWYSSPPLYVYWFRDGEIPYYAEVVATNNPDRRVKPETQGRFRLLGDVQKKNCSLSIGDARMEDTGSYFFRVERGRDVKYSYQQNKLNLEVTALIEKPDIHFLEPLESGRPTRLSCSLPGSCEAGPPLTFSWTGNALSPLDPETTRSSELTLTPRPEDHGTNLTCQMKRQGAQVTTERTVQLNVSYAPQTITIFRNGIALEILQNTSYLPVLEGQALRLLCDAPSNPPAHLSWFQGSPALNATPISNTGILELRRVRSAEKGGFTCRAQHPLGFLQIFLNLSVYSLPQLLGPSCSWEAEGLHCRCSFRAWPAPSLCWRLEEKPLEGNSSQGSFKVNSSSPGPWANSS

B1: CD117-2 (antibody, human IgG1, kappa, V domains shown)
VH: EVQLLESGVGLVQPGGSLRLSCAASGFSFGSYAMSWVRQAPGKGLEWVSSISGSGGTTYYADSVKGRFTISRDNSKNTLYLQMNSLRAEDTAVYYCARDPDDYGDYYFDYWGQGTLVTVSS
VL: DIQMTQSPSSLSASVGDRVTITCRASQSIGEYLNWYQQKPGKAPKLLIYATSSLQRGVPSRFSGSGSGTDFTLTISSLQPEDFATYYCQQSHTTPYTFGGGTKVEIKR
notes: detected with anti-human IgG in FACS
B2: CD117-14 (antibody, human IgG1, kappa, V domains shown)
VH: EVQLLESGGGLVQPGGSLRLSCAASGFTFSDYAMGWVRQAPGKGLEWVSGIGGSGGSAYYADSVKGRFTISRDNSKNTLYLQMNSLRAEDTAVYYCARGFDSTDGVDYWGQGTLVTVSS
VL: DIQMTQSPSSLSASVGDRVTITCQTSQSVSSYLNWYQQKPGKAPKLLIYGASRLESGVPSRFSGSGSGTDFTLTISSLQPEDFATYYCQQSYKTPWTFGGGTKVEIKR
notes: as for B1
B3: SIGLEC-8-40 (antibody, human IgG1, kappa, V domains shown)
VH: EVQLLESGGGLVQPGGSLRLSCAASGFTFSFFDMMWVRQAPGKGLEWVSQISETGRRTYYADSVKGRFTISRDNSKNTLYLQMNSLRAEDTAVYYCATAEDEQGYDYWGQGTLVTVSS
VL: DIQMTQSPSSLSASVGDRVTITCRASQSINFWLRWYQQKPGKAPKLLIYGTTSLESGVPSRFSGSGSGTDFTLTISSLQPEDFATYYCQQTATWPFTFGQGTKVEIKR
notes: tested as expressed and purified mAb; also called SIBLEC8-40
B4: SIGLEC-8-1 (antibody, human IgG1, kappa, V domains shown)
VH: EVQLLESGGGLVQPGGSLRLSCAASGFTFSNFPMSWVRQAPGKGLEWVSSISGTGSSTYYADSVKGRFTISRDNSKNTLYLQMNSLRAEDTAVYYCVREGRYFYYAMDVWGQGTLVTVSS
VL: DIQMTQSPSSLSASVGDRVTITCRASQNIAGYLNWYQQKPGKAPKLLIYAASNLHTGVPSRFSGSGSGTDFTLTISSLQPEDFATYYCQQSYSTPLAFGGGTKVEIKR
notes: tested as expressed and purified mAb
B5: SIGLEC-8-27 (antibody, human IgG1, kappa, V domains shown)
VH: EVQLLESGGGLVQPGGSLRLSCAASGFTFSNHVMSWVRQAPGKGLEWVSAISGSGASTYYADSVKGRFTISRDNSKNTLYLQMNSLRAEDTAVYYCARAPIAVAGTADHWGQGTLVTVSS
VL: DIQMTQSPSSLSASVGDRVTITCRASQSIGSDLNWYQQKPGKAPKLLIYGASRLESGVPSRFSGSGSGTDFTLTISSLQPEDFATYYCQQTFTNTPLTFGGGTKVEIKR
notes: as for B4

Key:
[1] = molecular target: T3, cyno CD117 (Macaca fascicularis, UniProt A0A7N9CP24); assay: Carterra SPR, cyno CD117
T3 construct: antigen of the Carterra SPR kinetics; also called cynomolgus monkey CD117
Experimental: (§1) To further evaluate the antibodies discovered during the screens, 21 clones were selected for detailed characterization and were analyzed for target binding kinetics by a Carterra SPR instrument. The binding kinetics of the anti-CD117 antibodies for human CD117, cynomolgus monkey CD117, and murine CD117 are shown in FIG. 29A-29B.

[2] = molecular target: T1, mouse CD117; assay: Carterra SPR, mouse CD117
Experimental: as §1

[3] = molecular target: T4, CD117 transiently expressed on Expi293 cells (UniProt P10721 26-976, limits assumed); assay: FACS, MFI expressing / parental cells
T4 construct: whole, on cells; Two cassettes are described (P2A mVenus and direct mVenus fusion); also called CD117 transient cells; the transient cell line

[4] = molecular target: CD117-GFP transiently overexpressed in HEK293T cells (UniProt P10721 26-976); assay: cell-based or functional assay
[5] = molecular target: T4, CD117 transiently expressed on Expi293 …; assay: flow cytometry titration on CD117 transient cells and on parental Expi293
Experimental: The transient expression of CD117 was validated with a control antibody, Expi293 (FIGS. 17A-17B). Expi293, […], was transiently transfected with CD117 48-hours post-transfection. The secondary antibody used was APC Goat anti-human IgG (diluted 1:400). 100,000 cells per well were blocked with 1×PBS+0.5% BSA for 1 hour, stained with 100 μL of the primary antibody for 1 hour, and stained with the secondary antibody for one hour, all with 3× washes in between each staining.

[6] = molecular target: T5, Cluster of differentiation 117 (CD117), antigen of epitope binning and ELISA (UniProt P10721 26-520, limits assumed); assay: Carterra SPR, human CD117
T5 construct: also called tyrosine-protein kinase KIT; mast/stem cell growth factor receptor (SCFR)
Experimental: as §1

[7] = molecular target: T4, CD117 transiently expressed on Expi293 …; assay: FACS cell binding, Expi293 transiently expressing CD117
[8] = molecular target: T6, Sialic acid-binding immunoglobulin-like lectin 8 (SIGLEC-8), antigen of the Carterra SPR studies (UniProt Q9NYZ4 17-363, limits assumed); assay: Carterra SPR kinetics, sensorgram panel
In short: (§2)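 On a Carterra instrument, surface plasmon resonance was used to measure how antibodies bind SIGLEC-8, with rate constants and dissociation constants as read-outs. The antibodies were taken from synthetic libraries by bead-based panning and clonal ELISA screening, then expressed and purified.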

[9] = molecular target: T7, SIGLEC-8 transiently expressed on cells (UniProt Q9NYZ4 17-499, limits assumed); assay: cell binding titration, transient SIGLEC-8 line
T7 construct: whole, on cells; Two cassettes are described (P2A mVenus and direct mVenus fusion); also called the transient line; pTT5-SIGLEC-8 P2A mVenus

[10] = molecular target: T6, Sialic acid-binding immunoglobulin-like …; assay: Carterra SPR
In short: as §2

[11] = molecular target: T6, Sialic acid-binding immunoglobulin-like …; assay: Carterra SPR kinetics, summary table
In short: as §2

[12] = molecular target: T8, SIGLEC-6; assay: SPR cross-reactivity table
T8 construct: also called OB-BP-1
In short: (§3)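 Purified antibodies against SIGLEC-8, first selected from synthetic libraries by four rounds of bead-based panning, were tested for cross-reactivity with related SIGLEC proteins by surface plasmon resonance on a Carterra instrument. Each protein tested has a dissociation constant or a binding result listed.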

[13] = molecular target: T2, SIGLEC-5; assay: SPR cross-reactivity table
In short: as §3

[14] = molecular target: T9, SIGLEC-3; assay: SPR cross-reactivity table
T9 construct: also called CD33
In short: as §3

[15] = molecular target: T10, SIGLEC-7; assay: SPR cross-reactivity table
T10 construct: also called p75/AIRM1
In short: as §3

[16] = molecular target: T11, SIGLEC-2; assay: SPR cross-reactivity table
T11 construct: also called CD22
In short: as §3

[17] = molecular target: T7, SIGLEC-8 transiently expressed on cells; assay: flow cytometry titration on cells transiently expressing SIGLEC-8 and on parental Expi293
[18] = molecular target: T6, Sialic acid-binding immunoglobulin-like …; assay: Carterra SPR kinetics, sensorgram panel; remark: listed apart in the source
In short: as §2

T5 sequence (P10721 26-520 limits assumed): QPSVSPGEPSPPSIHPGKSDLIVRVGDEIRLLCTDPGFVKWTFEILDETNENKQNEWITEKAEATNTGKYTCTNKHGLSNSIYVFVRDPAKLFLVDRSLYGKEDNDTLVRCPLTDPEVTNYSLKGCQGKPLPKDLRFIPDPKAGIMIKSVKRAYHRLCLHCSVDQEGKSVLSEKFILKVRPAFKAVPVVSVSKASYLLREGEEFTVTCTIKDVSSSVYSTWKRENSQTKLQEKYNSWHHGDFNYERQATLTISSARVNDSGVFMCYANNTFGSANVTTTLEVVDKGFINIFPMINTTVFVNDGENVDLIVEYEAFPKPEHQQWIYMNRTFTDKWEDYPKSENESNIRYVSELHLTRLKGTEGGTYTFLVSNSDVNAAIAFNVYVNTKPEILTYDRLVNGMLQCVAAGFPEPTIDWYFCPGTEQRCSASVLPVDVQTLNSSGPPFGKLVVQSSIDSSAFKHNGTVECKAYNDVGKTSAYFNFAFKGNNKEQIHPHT
T3 sequence (A0A7N9CP24 entry or part of it): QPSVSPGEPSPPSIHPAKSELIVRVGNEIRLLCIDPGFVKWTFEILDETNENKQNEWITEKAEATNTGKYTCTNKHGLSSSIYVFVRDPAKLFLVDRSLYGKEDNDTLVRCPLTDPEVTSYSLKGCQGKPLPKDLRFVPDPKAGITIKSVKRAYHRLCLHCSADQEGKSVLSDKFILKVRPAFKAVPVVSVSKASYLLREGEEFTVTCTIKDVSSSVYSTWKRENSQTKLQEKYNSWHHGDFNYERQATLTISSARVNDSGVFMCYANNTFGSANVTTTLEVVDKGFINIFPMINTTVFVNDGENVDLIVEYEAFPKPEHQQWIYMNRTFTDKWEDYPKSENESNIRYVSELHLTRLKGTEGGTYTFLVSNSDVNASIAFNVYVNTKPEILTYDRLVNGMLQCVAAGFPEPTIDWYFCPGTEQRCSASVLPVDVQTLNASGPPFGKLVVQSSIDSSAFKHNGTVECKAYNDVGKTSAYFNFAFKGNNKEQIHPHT
T6 sequence (Q9NYZ4 17-363 limits assumed): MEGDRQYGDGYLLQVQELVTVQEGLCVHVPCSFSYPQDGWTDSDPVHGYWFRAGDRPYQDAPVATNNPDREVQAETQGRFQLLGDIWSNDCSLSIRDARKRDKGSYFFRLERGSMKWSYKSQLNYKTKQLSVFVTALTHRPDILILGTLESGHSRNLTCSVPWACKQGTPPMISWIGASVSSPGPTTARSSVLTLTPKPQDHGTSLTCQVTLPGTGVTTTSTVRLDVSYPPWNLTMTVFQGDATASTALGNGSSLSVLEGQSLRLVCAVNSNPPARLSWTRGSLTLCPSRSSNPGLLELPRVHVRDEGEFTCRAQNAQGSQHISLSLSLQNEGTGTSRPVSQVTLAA
T7 sequence (Q9NYZ4 17-499 limits assumed): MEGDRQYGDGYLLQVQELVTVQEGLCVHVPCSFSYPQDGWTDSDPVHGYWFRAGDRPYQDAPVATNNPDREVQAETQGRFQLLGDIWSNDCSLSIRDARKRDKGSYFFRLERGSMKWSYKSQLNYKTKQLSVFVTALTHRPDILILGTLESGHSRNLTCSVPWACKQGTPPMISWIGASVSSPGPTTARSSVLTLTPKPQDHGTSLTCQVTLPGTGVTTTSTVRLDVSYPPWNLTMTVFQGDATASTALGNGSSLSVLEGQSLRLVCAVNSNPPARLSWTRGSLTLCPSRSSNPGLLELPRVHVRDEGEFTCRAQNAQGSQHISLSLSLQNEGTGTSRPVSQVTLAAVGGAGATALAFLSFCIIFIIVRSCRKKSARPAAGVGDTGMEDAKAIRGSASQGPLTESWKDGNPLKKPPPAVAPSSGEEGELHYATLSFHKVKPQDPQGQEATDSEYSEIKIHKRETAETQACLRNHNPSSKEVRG
T4 sequence (P10721 26-976 limits assumed): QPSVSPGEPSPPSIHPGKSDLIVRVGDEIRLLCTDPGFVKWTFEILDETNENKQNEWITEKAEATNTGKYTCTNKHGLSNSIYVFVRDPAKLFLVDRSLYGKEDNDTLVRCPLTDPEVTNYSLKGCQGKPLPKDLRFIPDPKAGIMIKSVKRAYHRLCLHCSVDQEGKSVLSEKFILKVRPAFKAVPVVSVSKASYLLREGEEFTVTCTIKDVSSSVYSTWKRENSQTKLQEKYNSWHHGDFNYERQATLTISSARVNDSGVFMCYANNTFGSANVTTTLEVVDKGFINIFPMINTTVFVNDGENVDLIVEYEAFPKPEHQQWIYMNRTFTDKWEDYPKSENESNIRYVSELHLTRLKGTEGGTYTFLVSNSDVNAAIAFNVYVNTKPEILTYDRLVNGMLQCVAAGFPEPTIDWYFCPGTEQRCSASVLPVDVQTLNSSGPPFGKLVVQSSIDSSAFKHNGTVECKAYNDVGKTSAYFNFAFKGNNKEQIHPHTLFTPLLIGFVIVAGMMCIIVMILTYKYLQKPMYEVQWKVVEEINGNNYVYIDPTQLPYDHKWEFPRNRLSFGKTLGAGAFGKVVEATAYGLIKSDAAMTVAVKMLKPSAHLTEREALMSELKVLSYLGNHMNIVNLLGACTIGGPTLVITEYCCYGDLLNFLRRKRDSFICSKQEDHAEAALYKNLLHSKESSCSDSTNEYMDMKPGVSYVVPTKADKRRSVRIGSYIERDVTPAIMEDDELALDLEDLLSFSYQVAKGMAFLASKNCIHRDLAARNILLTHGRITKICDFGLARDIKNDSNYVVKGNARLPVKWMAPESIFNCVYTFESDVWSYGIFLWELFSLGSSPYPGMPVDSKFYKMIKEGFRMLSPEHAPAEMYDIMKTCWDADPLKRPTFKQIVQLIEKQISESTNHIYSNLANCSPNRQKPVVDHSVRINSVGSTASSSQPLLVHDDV
T11 sequence (chain, as listed by the source limits assumed): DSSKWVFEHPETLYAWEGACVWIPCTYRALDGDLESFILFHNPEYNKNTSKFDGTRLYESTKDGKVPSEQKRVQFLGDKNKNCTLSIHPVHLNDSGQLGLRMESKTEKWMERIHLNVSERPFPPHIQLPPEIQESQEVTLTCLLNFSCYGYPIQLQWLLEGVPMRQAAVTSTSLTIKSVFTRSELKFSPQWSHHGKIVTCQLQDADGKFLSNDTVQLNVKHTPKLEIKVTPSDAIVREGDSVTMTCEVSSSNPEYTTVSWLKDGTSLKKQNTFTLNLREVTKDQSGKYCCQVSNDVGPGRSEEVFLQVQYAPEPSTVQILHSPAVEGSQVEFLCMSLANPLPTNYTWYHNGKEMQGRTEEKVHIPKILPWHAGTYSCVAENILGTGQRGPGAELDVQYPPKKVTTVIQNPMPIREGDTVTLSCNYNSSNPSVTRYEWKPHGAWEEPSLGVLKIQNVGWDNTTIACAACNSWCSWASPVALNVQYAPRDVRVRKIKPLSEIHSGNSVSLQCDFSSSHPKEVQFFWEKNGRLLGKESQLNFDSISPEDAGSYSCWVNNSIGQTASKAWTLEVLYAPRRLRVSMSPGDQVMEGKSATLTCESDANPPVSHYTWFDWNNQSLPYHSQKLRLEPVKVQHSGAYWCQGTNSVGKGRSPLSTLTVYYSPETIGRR
T10 sequence (receptor, as listed by the source limits assumed): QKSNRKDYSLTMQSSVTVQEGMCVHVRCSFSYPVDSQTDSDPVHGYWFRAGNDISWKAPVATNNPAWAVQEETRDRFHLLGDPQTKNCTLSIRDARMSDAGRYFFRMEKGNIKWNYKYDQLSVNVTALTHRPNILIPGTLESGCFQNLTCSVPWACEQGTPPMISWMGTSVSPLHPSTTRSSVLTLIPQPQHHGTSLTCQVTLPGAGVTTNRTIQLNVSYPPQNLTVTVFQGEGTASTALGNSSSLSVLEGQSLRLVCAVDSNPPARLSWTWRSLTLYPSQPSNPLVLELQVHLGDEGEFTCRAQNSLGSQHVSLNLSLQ
T9 sequence (receptor, as listed by the source limits assumed): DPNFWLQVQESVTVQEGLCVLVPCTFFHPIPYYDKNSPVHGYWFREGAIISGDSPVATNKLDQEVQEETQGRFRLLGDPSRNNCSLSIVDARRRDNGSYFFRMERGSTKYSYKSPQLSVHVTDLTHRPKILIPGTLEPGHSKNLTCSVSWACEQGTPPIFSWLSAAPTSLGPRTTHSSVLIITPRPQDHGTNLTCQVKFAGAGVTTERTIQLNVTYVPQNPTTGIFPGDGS
T8 sequence (receptor, as listed by the source limits assumed): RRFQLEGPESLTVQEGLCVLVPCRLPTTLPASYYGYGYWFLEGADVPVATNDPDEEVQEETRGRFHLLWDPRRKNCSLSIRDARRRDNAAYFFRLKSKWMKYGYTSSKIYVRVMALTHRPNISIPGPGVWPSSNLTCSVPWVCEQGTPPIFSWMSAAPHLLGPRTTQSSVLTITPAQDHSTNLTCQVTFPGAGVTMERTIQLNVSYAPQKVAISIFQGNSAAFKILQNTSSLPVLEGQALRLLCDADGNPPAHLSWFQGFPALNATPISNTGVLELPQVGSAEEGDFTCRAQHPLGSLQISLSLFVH

| Kd [1] | koff [1] | kon [1] | MFI Ratio [3] | Kd [6] | koff [6] | kon [6] | EC50 [7] | EC50 [9] | Kd [10] | koff [11] | kon [11] | also measured | Binder |
| --- | --- | --- | --- | --- | --- | --- | --- | --- | --- | --- | --- | --- | --- |
| 607 nM | 0.201 s⁻¹ | 331000 M⁻¹ s⁻¹ | 30.7 | 208 nM | 0.136 s⁻¹ | 655000 M⁻¹ s⁻¹ | 0.742 nM | – | – | – | – | Kd [2]: 13.7 nM; koff [2]: 0.00222 s⁻¹; kon [2]: 161000 M⁻¹ s⁻¹; IC50, inhibition of the SCF-stimulated SRF reporter signal (FFLuc/RLuc); same row prints log(IC50) -9.344 and Span -0.2266 [4]: 4.53e-10 M; EC50 (read off the curve) [5]: ~1 nM | B1 |
| 2.34 nM | 0.00146 s⁻¹ | 624000 M⁻¹ s⁻¹ | 12.2 | 2.53 nM | 0.00177 s⁻¹ | 698000 M⁻¹ s⁻¹ | 0.0718 nM | – | – | – | – | binding result [2]: no binding; IC50, inhibition of the SCF-stimulated SRF reporter signal (FFLuc/RLuc); same row prints log(IC50) -9.67 and Span -0.1208 [4]: 2.14e-10 M | B2 |
| – | – | – | – | – | – | – | – | 0.609 nM | 0.0225 nM | 1e-05 s⁻¹ | 444000 M⁻¹ s⁻¹ | Kd [8]: < 0.023 nM | B3 |
| – | – | – | – | – | – | – | – | 1.26 nM | 0.292 nM | 4.38e-05 s⁻¹ | 150000 M⁻¹ s⁻¹ | Kd [12]: 7 nM; Kd [13]: 5.8 nM; Kd [14]: 135 nM; Kd [15]: 5240 nM; Kd [16]: 196 nM; EC50 (read off the curve) [17]: ~5 nM | B4 |
| – | – | – | – | – | – | – | – | 904 nM | – | – | – | binding result [18]: no binding | B5 |

From patent US20260001953A1 (TWIST BIOSCIENCE, published 2026)
